Measured values as given in US5882644A, “Monoclonal antibodies specific for the platelet derived growth factor β receptor and methods of use thereof” (Protein Design Labs, Inc., priority 1996, dated 1999).
“Also recorded” adds a separate entry of the source. Each block holds one molecule with its values, some of them ahead of it.

Key:
PDGF-R β [1] = assay: Competition with 125I-labeled murine antibody tracer on Sp2/0 PDGF-R β transfectant cells; format: binding, human; settings: Sp2/0 PDGF-R β transfectants; for binding affinity Ka: calculated from competitive binding data
Procedure: To assess the ability of HuM4TS.22 to compete with muM4TS.22 for receptor binding, increasing concentrations of the two antibodies were respectively incubated on ice for one hour with Sp2/0 PDGF-R β transfectant cells and a fixed amount of tracer ^125 I-labeled muAb. The sample tubes were processed as in the blocking experiment just described.
To assess the ability of HuM4TS.11 to compete with the muAb for receptor binding, increasing concentrations of the two antibodies were respectively incubated on ice for one hour with Sp2/0 PDGF-R β transfectant cells and a fixed amount of tracer ^125 I-labeled M4TS.11. The sample tubes were processed as in the blocking experiment described. […] The binding affinities calculated from the data were: Ka =5×10^8 M^-1 for the muAb and 3×10^7 M^-1 for the HuAb.

[2] = system: PDGF-R β deletion fusion proteins; assay: ELISA epitope mapping with PDGF-R β deletion fusion proteins; format: binding, human; settings: for binding to protein D5 (fifth domain only): separate experiment
From the text: To localize the binding sites of the M4TS antibodies on the PDGF-R, a series of PDGF-R β deletion mutants, each consisting of one or more adjacent domains of the extracellular portion of the receptor, was constructed by standard methods including PCR. The deletion constructs were each cloned into an expression plasmid (FIG. 13A) where they were fused to the constant region of the human lambda-1 immunoglobulin light chain, to facilitate detection in ELISA. The constructs were as follows (see FIG. 13B):
These PDGF-R β deletion fusion proteins were transiently expressed, by transfecting 10 μg of the respective expression plasmids into approximately 10^7 S194 mouse myeloma cells (ATCC TIB 19) using the DEAE-dextran method in accordance with the method described by Queen et al. (1984) Mol. Cell. Biol. 4:1042. After the transfected cells had died (4-5 days) and been removed by centrifugation, the culture supernatants containing the PDGF-R β deletion proteins were used in ELISA assays, 100 μl/well. First, the relative levels of the various PDGF-R β deletion proteins were measured in an ELISA where the plate was coated with goat anti-human lambda antibody (Tago) and the proteins detected with HRP-conjugated goat anti-human lambda antibody. […] To determine the ability of the antibodies to bind to each deletion protein, an ELISA was performed in which goat anti-human lambda antibody was used to coat the plate, followed by the cell supernatant and then 0.1 μg of the appropriate antibody, and then bound antibody detected with HRP-conjugated goat-anti-mouse Ig or goat-anti-human Ig antibody as appropriate (Tago). As a positive control, purified soluble PDGF-R β (Example 1) was coated directly on certain wells of the plate (denoted D1-5 in FIG. 14).

PDGF-R β [3] = assay: Flow cytometry (FACS) staining of Sp2/0 transfectant cells expressing PDGF-R β; format: binding, human; settings: 50 ng antibody; vs untransfected Sp2/0 cells
Procedure: The cells were washed with cold PBS, incubated for an additional 30 minutes with FITC-labeled goat-anti-human Ig (Tago Immunologicals) and analyzed by flow cytometry (FACS).
The cells were washed with cold PBS, incubated for an additional 30 minutes with FITC-labeled goat-anti-human Ig (Tago Immunologicals) and analyzed by flow cytometry (FACS). […] Neither an irrelevant control antibody nor the FITC-labeled goat antibody alone stained either cell type.

PDGF-R β [4] = assay: Competitive binding with 125I-PDGF BB on transfectant cells expressing PDGF-R β; design: species or system human; settings: 4° C.
Procedure: To determine the ability of muM4TS.11 and muM4TS.22 to block binding of PDGF BB to PDGF-R β, the following competitive binding experiments were performed. Transfectant cells expressing PDGF-R β were harvested, washed twice with cold DMEM, and resuspended at 10^6 cells/ml in DMEM. The assay was carried out in triplicate by incubating 100 μl of the cell suspension with either: 1) no antibody (to determine total binding); 2) varying concentrations of antibody; or 3) 100 ng cold PDGF BB (to saturate specific binding sites and determine non-specific binding) for 15 minutes at 4° C. Each sample received 1.0 ng ^125 I-labeled PDGF BB, and was incubated for an additional 60 min at 4° C. Unbound ^125 I-labeled PDGF BB was separated from that bound to the cell by layering the sample over a mixture of 80% dibutylphthalate, 20% olive oil in a microfuge tube, and microfuging briefly to pellet the cells through the oil mixture. The tubes were placed in dry ice to freeze the contents, the tip of the tube containing the cell pellet was cut off into a vial, and radioactivity was determined in a gamma counter.
To assess the ability of HuM4TS.22 to block the binding of PDGF BB to its receptor, competitive binding experiments of HuM4TS.22 with ^125 I-PDGF BB were performed according to the method described in Example 3.
To assess the ability of muM4TS.11 and HuM4TS.11 to block the binding of PDGF BB to the PDGF β receptor, competitive binding experiments of these antibodies with ^125 I-PDGF BB were performed according to the method described in Example 3.

[5] = system: CHO transfectant cell line expressing PDGF-R β (CHO C4); assay: Inhibition of PDGF BB-induced proliferation (3H-thymidine) of CHO C4 cells; format: cell-based, Chinese hamster; settings: for inhibition of PDGF BB-induced proliferation: 50 ng/ml PDGF BB, sufficient antibody concentration
Procedure: To determine the ability of muM4TS.11 and muM4TS.22 to block PDGF-mediated proliferation, a CHO transfectant cell line expressing PDGF-R β (CHO C4) was generated, as described above. Proliferation of this line, as measured by incorporation of ^3 H-thymidine by DNA synthesis, is stimulated several-fold by PDGF BB. The CHO PDGF-R β transfectants were plated in a 96-well tissue culture plate at about 50,000 cells/well in Ham's F-12+10% FCS and incubated for 1-2 days. The medium was removed, and the cells were washed once with serum-free medium (Ham's F-12+1 mg/ml BSA) and incubated in this media for 1-2 days to put them in a quiescent state. The appropriate amount of antibody in serum-free medium was added, and after 1-3 hours, 50 ng/ml PDGF BB was added. After overnight incubation, 1 μCi ^3 H-thymidine was added, and after a final 4 hour incubation, the cells were harvested using a PHD cell harvester (Cambridge Technology) and analyzed with a scintillation counter.

[6] = target: T1, PDGF-R β expressed on transfectant cells (CHO PDGF-R β transfectants, CHO C4 line); Sp2/0 PDGF-R β … (human, UniProt P09619); assay: competition with 125I-labeled muM4TS.11 on Sp2/0 PDGF-R β transfectant cells
Procedure: (§1) Figure 11: FIG. 11 is a graph depicting competitive binding of muM4TS.11 (closed squares) and HuM4TS.11 (open squares) and HuM4TS.11(gamma 1) (open diamonds). Increasing concentrations of cold competitor antibodies were incubated with the Sp2/0 transfectants expressing PDGF-R β in the presence of radiolabeled tracer muM4TS.11, and the ratio of bound/free radioactivity determined. The results shown are mean values of triplicate samples.
(§2) To assess the ability of HuM4TS.11 to compete with the muAb for receptor binding, increasing concentrations of the two antibodies were respectively incubated on ice for one hour with Sp2/0 PDGF-R β transfectant cells and a fixed amount of tracer ^125I-labeled M4TS.11. The sample tubes were processed as in the blocking experiment described. HuM4TS.11 competed less well than muM4TS.11 (FIG. 11).
(§3) Loss of binding affinity due to the gamma4 isotype has been observed in another antibody (Horgan et al. (1993) J. Immunol. 150:5400), and may be due to structural constraints imposed on the particular antibody by the gamma4 hinge region. See, Horgan et al. (1993).

[7] = target: T1, PDGF-R β expressed on transfectant …; assay: competition with 125I-labeled muM4TS.11 on Sp2/0 PDGF-R β transfectant cells (FIG. 11)
Procedure: as §1, §2, §3

rat PDGF-R β = rat PDGF-R β (rat, UniProt Q05030); assay: cell-based or functional assay
[8] = target: T1, PDGF-R β expressed on transfectant …; assay: competition with 125I-labeled M4TS.11 on Sp2/0 PDGF-R β transfectant cells
Procedure: as §1, §2

B3: HuM4TS.11: humanized muM4TS.11, human III-2R framework, gamma4 constant region; SEQ ID NOS:14 and 16 (antibody, V domains shown)
VL: METDTLLLWVLLLWVPGSTGDIQMTQSPSSLSASVGDRVTITCRASESVDSYGNSFMHWYQQKPGKAPKLLIYRASNLESGIPSRFSGSGSRTDFTLTISSLQPEDVATYYCQQSNEDPPTFGQGTKVEIK
VH: MGWSWIFLFLLSGTAGVHSQVQLVQSGAEVKKPGASVKVSCKASGYTFTNCWMHWVRQAPGQGLEWIGYINPTTGYSEYNQNFKDKATITADKSTSTAYMELSSLRSEDTAVYYCTSNYGHYDWFGNWGQGTLVT
competition with labeled murine antibody for receptor binding / binding affinity, in words (PDGF-R β [1]): competed less well than muM4TS.11
binding affinity Ka (PDGF-R β [1]): 3e+07 M⁻¹
binding to deletion proteins containing only first through third domains ([2]; 0.1 μg antibody): do not bind
binding to protein D1-4 ([2]; 0.1 μg antibody): do bind to protein D1-4
binding to protein D5 (fifth domain only) [2]: none of muM4TS.11 and HuM4TS.11, muM4TS.22 and HuM4TS.22 bound to it
FACS staining of Sp2/0 PDGF-R β transfectant cells (PDGF-R β [3]): stained the transfectant cells but did not stain untransfected Sp2/0 cells at all
blocking of 125I-PDGF BB binding to PDGF-R β (PDGF-R β [4]): neither muM4TS.11 nor HuM4TS.11 were able to inhibit binding of PDGF BB to its receptor
inhibition of PDGF-mediated proliferation compared with another antibody [5]: nearly as well as muM4TS.11; also recorded: about equally well
inhibition of PDGF BB-induced proliferation [5]: almost completely inhibited the stimulation of proliferation by PDGF BB

B4: muM4TS.11 (antibody, V domains shown)
VH: QVQLQQSGAEVAKPGASVKMSCKASGYTFTNCWMHWVKQRPGQGLEWIGYINPTTGYSEYNQNFKDKATLTADKSSNTAYIQLSSLTSEDSAVYYCTSNYGHYDWFANWGQGTLVT
VL: DIVLTQSPPSLAVSLGQRATISCRASESVDSYGNSFMHWYQQKPGQPPKLLIYRASNLESGIPARFSGGGSRTDFTLTINPVEADDVATYYCQQSNEDPPTFGGGTKLEIK
IC50 of inhibition of PDGF BB-stimulated proliferation of rat aortic smooth muscle cells (rat PDGF-R β): ~0.5 µg/mL
Ka [8]: 5e+08 M⁻¹

Continued, in another order:

binding to deletion proteins containing only first through second domains ([2]; 0.1 μg antibody): do not bind
binding to protein D1-3 ([2]; 0.1 μg antibody): do bind to protein D1-3
binding to protein D3 (third domain only) ([2]; 0.1 μg antibody): bind to the protein D3
B1: HuM4TS.22: humanized muM4TS.22, human IC4 framework, gamma4 constant region; SEQ ID NOS:6 and 8 (antibody, V domains shown)
VL: MRVLAELLGLLLFCFLGVRCDIQMTQSPSSLSASVGDRVTITCHASQNINVWLSWYQQKPGKAPKLLIYKASNLHTGVPSRFSGSGSGTGFTLTISSLQPEDIATYYCQQGQSFPFTFGGGTKVEIK
VH: MAVLALLLCLVTFPSCALSQVQLQESGPGLVKPSETLSLTCTVSGFSLTNYAINWVRQPPGKGLEWLGIIWTGGGTSYNSALKSRLTISKDTSKNQVSLKLSSVTAADTAVYYCARTGTRGYFFDYWGQGTLVTVSS
competition with labeled murine antibody for receptor binding / binding affinity, in words (PDGF-R β [1]): competed with equal efficiencies
binding affinity Ka (PDGF-R β [1]): 4e+08 M⁻¹
binding to protein D5 (fifth domain only) [2]: none of muM4TS.11 and HuM4TS.11, muM4TS.22 and HuM4TS.22 bound to it
FACS staining of Sp2/0 PDGF-R β transfectant cells (PDGF-R β [3]): stained the transfectant cells but did not stain untransfected Sp2/0 cells at all
blocking of 125I-PDGF BB binding to PDGF-R β (PDGF-R β [4]): reduced the binding of radiolabelled PDGF BB ligand to the PDGF-R β transfectant cells to the non-specific level; also recorded: did have the ability to block binding of PDGF BB to PDGF-R β
inhibition of PDGF-mediated proliferation compared with another antibody [5]: about equally as well as muM4TS.22
inhibition of PDGF BB-induced proliferation [5]: almost completely inhibited the stimulation of proliferation by PDGF BB

Ka [6]: 1.6e+08 M⁻¹
fold difference in competition against muM4TS.11 [7]: ~3 fold
B2: HuM4TS.11(gamma1) (antibody, V domains shown)
VH: QVQLVQSGAEVKKPGASVKVSCKASGYTFTNCWMHWVRQAPGQGLEWIGYINPTTGYSEYNQNFKDKATITADKSTSTAYMELSSLRSEDTAVYYCTSNYGHYDWFGNWGQGTLVT
VL: DIQMTQSPSSLSASVGDRVTITCRASESVDSYGNSFMHWYQQKPGKAPKLLIYRASNLESGIPSRFSGSGSRTDFTLTISSLQPEDVATYYCQQSNEDPPTFGQGTKVEIK
